By Kd is commonly meant the concentration at which binding is half-saturated. High values mean a looser complex, low ones a tighter complex. A word on the koff: it is a measure of how fast the partners let go of each other. The term kon denotes a measure of how fast the partners come together. Low readings indicate slow association, high ones fast association.

Results on 30 substances are retold here after US20250154262A1.

The target of assay [1] is hFcγRIIIa-V158 (human) (UniProt P08637). Description: SPR, further study. In general terms: Surface plasmon resonance follows binding to a sensor surface in real time, without labels.
Assay [2] shares this target. The experiment in a line: SPR (Carterra LSA), protein AG capture.
Assay [3] has the same target. Description: SPR (Carterra LSA), captured on protein A/G, hFcγRIIIa-V158 injected, 1:1 fit.
The target is the same in assay [4]. The experiment in a line: SPR (Carterra LSA), captured on protein A/G, hFcγRIIIa-V158 injected, 1:1 fit [Cont. 3].
The target is the same in assay [5]. Description: SPR (Carterra LSA), captured on protein A/G, hFcγRIIIa-V158 injected, 1:1 fit [Cont. 7].
The target is the same in assay [6]. Description: SPR (Carterra LSA), captured on protein A/G, hFcγRIIIa-V158 injected, 1:1 fit [Cont. 5].

Sequence of hFcγRIIIa-V158 (human) (P08637 17-208 F176V limits assumed): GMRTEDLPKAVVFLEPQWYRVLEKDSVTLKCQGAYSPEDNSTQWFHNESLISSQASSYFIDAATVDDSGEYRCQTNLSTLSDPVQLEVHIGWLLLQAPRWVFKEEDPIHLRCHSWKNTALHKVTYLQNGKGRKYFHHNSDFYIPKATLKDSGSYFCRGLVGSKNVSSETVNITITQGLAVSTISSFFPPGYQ

For H268D, A330F, S298A (antibody), in the assay with hFcγRIIIa-V158 (human) [1], the Fold Change vs. WT was 6 fold, the Kd turned out to be 0.0801 µM, the koff stood at 0.0311 s⁻¹ and the kon is 389000 M⁻¹ s⁻¹.

Turning to H268D, L314K (antibody), in the assay with hFcγRIIIa-V158 (human) [1], the Fold Change vs. WT turned out to be 3 fold, the Kd turned out to be 0.159 µM, the koff is 0.0516 s⁻¹ and the kon is 324000 M⁻¹ s⁻¹.

Take H268D, L314M, S298A (antibody): the Kd with hFcγRIIIa-V158 (human) [1] is 0.0851 µM.

H268D, L314N (antibody): in the assay with hFcγRIIIa-V158 (human) [1], the Fold Change vs. WT is 4.9 fold, the Kd came to 0.0965 µM, the off-rate (koff) came out at 0.0452 s⁻¹ and the kon was 471000 M⁻¹ s⁻¹.

In the assay with hFcγRIIIa-V158 (human) [1], H268D, L314S (antibody) yielded a Fold Change vs. WT of 3.1 fold, a Kd of 0.152 µM, a koff of 0.0434 s⁻¹ and a kon of 286000 M⁻¹ s⁻¹.

For H268D, L314T, S298A (antibody), in the assay with hFcγRIIIa-V158 (human) [1], the Fold Change vs. WT came to 10.2 fold, the Kd came out at 0.0468 µM, the koff was 0.0217 s⁻¹ and the kon was 465000 M⁻¹ s⁻¹.

In the assay with hFcγRIIIa-V158 (human) [1], H268D, S267D, A339T (antibody) yielded a Fold Change vs. WT of 4 fold, a Kd of 0.119 µM, a koff of 0.0525 s⁻¹ and a kon of 442000 M⁻¹ s⁻¹.

In turn, H268D, S298A (antibody) yielded a Kd with hFcγRIIIa-V158 (human) [1] of 0.0957 µM.

Consider H268D, Y373W (antibody), for which the Kd with hFcγRIIIa-V158 (human) [1] worked out at 0.221 µM.

In the assay with hFcγRIIIa-V158 (human) [1], H268D, Y373W, S298A (antibody) came in with a Fold Change vs. WT of 5.8 fold, a Kd of 0.0826 µM, a koff of 0.0273 s⁻¹ and a kon of 332000 M⁻¹ s⁻¹.

Turning to H268D_A330Y_D376V (antibody), the figures for the Kd with hFcγRIIIa-V158 (human) [1] and with hFcγRIIIa-V158 (human) [2] were 0.152 µM and 0.0876 µM, respectively.

Regarding H268D_L251Q_L314M_S298A (antibody), in the assay with hFcγRIIIa-V158 (human) [1], the Fold Change vs. WT was determined as 7.8 fold, the Kd was determined as 0.0608 µM, the koff was found to be 0.0279 s⁻¹ and the kon came out at 509000 M⁻¹ s⁻¹. In the assay with hFcγRIIIa-V158 (human) [2], the Fold-change relative to WT was determined as 11.8 fold, the Kd is 0.0246 µM, the koff turned out to be 0.0125 s⁻¹ and the kon was determined as 509000 M⁻¹ s⁻¹.

As to H268D_L251Q_S298A (antibody), the Kd in the assay with hFcγRIIIa-V158 (human) [1] was 0.055 µM; in the assay with hFcγRIIIa-V158 (human) [2] it was 0.0311 µM.

In the assay with hFcγRIIIa-V158 (human) [1], H268D_L314T (antibody) had a Fold Change vs. WT of 3.8 fold, an equilibrium dissociation constant (Kd) of 0.125 µM, a koff of 0.0481 s⁻¹ and a kon of 384000 M⁻¹ s⁻¹. In the assay with hFcγRIIIa-V158 (human) [2], this substance registered a Fold-change relative to WT of 3.5 fold, a Kd of 0.083 µM, an off-rate constant (koff) of 0.026 s⁻¹ and a kon of 314000 M⁻¹ s⁻¹.

Substance H268E, L314T, D376V (antibody) gave a Kd with hFcγRIIIa-V158 (human) [1] of 0.159 µM.

Regarding S267D_A330Y_L251W (antibody), in the assay with hFcγRIIIa-V158 (human) [2], the Fold-change relative to WT worked out at 2.6 fold, the Kd stood at 0.111 µM, the koff was found to be 0.0391 s⁻¹ and the kon came to 353000 M⁻¹ s⁻¹.

In the assay with hFcγRIIIa-V158 (human) [2], S267D_A330Y_L251W_D376V (antibody) came in with a Fold-change relative to WT of 3.2 fold, a Kd of 0.0914 µM, a koff of 0.036 s⁻¹ and a kon of 394000 M⁻¹ s⁻¹.

Take S267D_A330Y_L314K (antibody): in the assay with hFcγRIIIa-V158 (human) [2], the Kd was determined as 0.268 µM. In other words, the sub-micromolar range.

In the assay with hFcγRIIIa-V158 (human) [2], S267D_A330Y_Y373W (antibody) yielded a Fold-change relative to WT of 2.3 fold, a Kd of 0.124 µM, a koff of 0.0371 s⁻¹ and a kon of 298000 M⁻¹ s⁻¹.

In turn, S267D_L314T_A339T (antibody) registered a Kd with hFcγRIIIa-V158 (human) [2] of 0.208 µM.

In the case of S267D_L314W_L251H_D376V (antibody), in the assay with hFcγRIIIa-V158 (human) [2], the Fold-change relative to WT turned out to be 2.3 fold, the Kd came out at 0.124 µM, the koff worked out at 0.036 s⁻¹ and the kon stood at 290000 M⁻¹ s⁻¹.

In turn, S298A_A330Y_A339T (antibody) gave a Kd in the assay with hFcγRIIIa-V158 (human) [2] of 0.0584 µM.

In the assay with hFcγRIIIa-V158 (human) [2], S298A_A330Y_A339T_Y373W (antibody) gave a Fold-change relative to WT of 3.1 fold, a Kd of 0.0933 µM, a koff of 0.0206 s⁻¹ and a kon of 221000 M⁻¹ s⁻¹.

S298A_A330Y_D376V (antibody): in the assay with hFcγRIIIa-V158 (human) [2], the Fold-change relative to WT is 3.8 fold, the Kd is 0.0772 µM, the koff is 0.0285 s⁻¹ and the kon was determined as 369000 M⁻¹ s⁻¹.

In the assay with hFcγRIIIa-V158 (human) [2], S298A_A330Y_L251W (antibody) registered a Fold-change relative to WT of 3.2 fold, a Kd of 0.0904 µM, a koff of 0.038 s⁻¹ and a kon of 421000 M⁻¹ s⁻¹.

As for S298A_A330Y_L251W_D376V (antibody), in the assay with hFcγRIIIa-V158 (human) [2], the Fold-change relative to WT came out at 2.3 fold, the Kd was determined as 0.127 µM, the koff was determined as 0.0308 s⁻¹ and the kon was found to be 243000 M⁻¹ s⁻¹.

In the assay with hFcγRIIIa-V158 (human) [2], S298A_A330Y_L314K (antibody) gave a Fold-change relative to WT of 3.3 fold, a Kd of 0.0884 µM, a koff of 0.0207 s⁻¹ and a kon of 235000 M⁻¹ s⁻¹.

In the assay with hFcγRIIIa-V158 (human) [2], S298A_A330Y_Y373W (antibody) registered a Fold-change relative to WT of 1.2 fold, a Kd of 0.251 µM, a koff of 0.0344 s⁻¹ and a kon of 137000 M⁻¹ s⁻¹.

For the substance “WT (from UniProt P01857 1-330) (antibody)”, the Kd turned out to be 0.477 µM with hFcγRIIIa-V158 (human) [1]; 0.289 µM in the assay with hFcγRIIIa-V158 (human) [2]; 0.35 µM with hFcγRIIIa-V158 (human) [3]; 0.29 µM with hFcγRIIIa-V158 (human) [4]; 0.35 µM with hFcγRIIIa-V158 (human) [5].

In the case of adalimumab (antibody), the Kd was found to be 0.19 µM with hFcγRIIIa-V158 (human) [5] and 0.31 µM with hFcγRIIIa-V158 (human) [6].
